According to US20140227292A1 (PROTHENA BIOSCIENCES, published 2014):
Blank lines part the entries; values can stand above or below the binder they belong to.

What was measured:
[1] = biological target: T1, human MCAM (melanoma cell adhesion molecule), expressed on transfected CHO cells (human, UniProt P43121 24-646); assay: blocking assay of the re-expressed antibodies (Table 7 'Blocking IC50'; laminin/FACS assay of paragraph 438): % inhibition of laminin 411 binding to hMCAM-expressing CHO cells
T1 construct: also called hMCAM; CD146
T1 chain: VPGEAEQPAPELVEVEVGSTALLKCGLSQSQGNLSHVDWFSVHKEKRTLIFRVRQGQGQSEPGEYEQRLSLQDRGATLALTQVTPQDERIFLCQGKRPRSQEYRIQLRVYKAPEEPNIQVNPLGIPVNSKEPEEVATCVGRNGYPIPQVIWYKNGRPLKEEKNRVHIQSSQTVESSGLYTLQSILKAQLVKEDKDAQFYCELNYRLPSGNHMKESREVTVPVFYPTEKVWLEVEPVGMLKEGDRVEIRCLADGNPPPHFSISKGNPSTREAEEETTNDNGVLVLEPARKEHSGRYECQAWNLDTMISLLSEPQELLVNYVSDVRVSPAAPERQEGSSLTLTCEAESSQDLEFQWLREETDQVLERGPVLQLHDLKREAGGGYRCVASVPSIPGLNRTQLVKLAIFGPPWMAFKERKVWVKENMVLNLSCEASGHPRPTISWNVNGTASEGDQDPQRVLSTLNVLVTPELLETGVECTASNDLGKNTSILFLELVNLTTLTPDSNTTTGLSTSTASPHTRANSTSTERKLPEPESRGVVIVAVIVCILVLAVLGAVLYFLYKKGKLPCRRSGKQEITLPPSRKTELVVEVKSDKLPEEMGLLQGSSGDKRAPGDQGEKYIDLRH
Method: Following incubation for 30-45 minutes, the cells were washed and anti-laminin conjugated to AF650 (NovusBio) was added to detect the bound laminin. The cells were run on a flow cytometer to measure the laminin binding signal.

[2] = biological target: recombinant human laminin 411 (Biolamina) (human, UniProt Q16363 25-1823; P07942 22-1786; P11047 34-1609); assay: SPR, Biacore T200, steady state, Fc-tagged MCAM IgG1-2A captured by anti-Fc, laminin as analyte

- IC50 (read off the curve) [1]: ~0.8 µg/mL
B1: h2107_VH2 + h2107_VL2 (antibody, V domains shown)
VH: QVTLKESGPVLVKPTETLTLTCTVSGFSLTSNGVSWVRQPPGKALEWIAAISSGGSTYYNSAFKSRLSISRDTSKSQVVLTMTNMDPVDTATYYCARHRPFYFDYWGQGTLVTVSS
VL: DIQMTQSPSSLSASVGDRVTITCKGSQNIYKSLAWFQLKPGKVPKLLIYDANSLQTGIPSRFSGSGSGTDFTLTISSLQPEDVATYYCQQYYSGYTFGGGTKVEIK
notes: also called h2107VH2VL2; VH2VL2

- IC50 (read off the curve) [1]: ~0.4 µg/mL
B2: chimeric 1749 (antibody, V domains shown)
VH: DVKLVESGGDLVKPGGSLKLSCAASGFTFSSYIMSWVRQTPEKRLEWVATISSGGSSTYYPDSVKGRFTISRDNAKNTLYLQMSSLKSEDTAMYYCTRDDDYDVKVFAYWGQGTLVTVSA
VL: DIVMSQSPSSLAVSAGEKVTMNCKSSRSLLNSRIRKNYLAWYQQKPGQSPKLLIYWASTRESGVPDRFTGSGSGTDFTLTISSVQAEDLAVYYCKQSYNLLTFGAGTKLELK

- Kd [2]: 66 nM
B3: Recombinant human Fc-tagged MCAM IgG1-2A (human MCAM domains 1 and 2, amino acids 19-242) (Fc fusion)
chain: PRVAGVPGEAEQPAPELVEVEVGSTALLKCGLSQSQGNLSHVDWFSVHKEKRTLIFRVRQGQGQSEPGEYEQRLSLQDRGATLALTQVTPQDERIFLCQGKRPRSQEYRIQLRVYKAPEEPNIQVNPLGIPVNSKEPEEVATCVGRNGYPIPQVIWYKNGRPLKEEKNRVHIQSSQTVESSGLYTLQSILKAQLVKEDKDAQFYCELNYRLPSGNHMKESREVT
notes: also called human MCAM IgG1-2A; MCAM Fc domains 1 and 2; not shown: human Fc tag

- IC50 (read off the curve) [1]: ~0.5 µg/mL
B4: chimeric 2107 (antibody, V domains shown)
VH: QVQLKESGPGLVQSSQTLSLTCTVSGFSLTSNGVSWVRQPPGKGLEWIAAISSGGSTYYNSAFKSRLSISRNTSKSQVLLKMNSLQTEDTGMYFCARHRPFYFDYWGQGVMVTVSS
VL: DIQVTQSPSLLSASVGDRVTLNCKGSQNIYKSLAWFRLKRGEAPKLLIYDANSLQTGIPSRFSGSGSGTDFTLTITSLQPEDVATYFCQQYYSGYTFGAGTKLELK
